Source: PMC10666288, “Unveiling the Catalytic Mechanism of a Processive Metalloaminopeptidase” (Biochemistry, 2023)

Columns and labels:
[1] = target: the molecule itself; test: crystal structure; uncleaved PaPepA, sitting drop, 20 °C, PEG 3350 and ammonium nitrate; three crystal forms: apo, with MnCl2, with bestatin and MnCl2
[2] = target: the molecule itself; test: dynamic light scattering; PaPepA in solution; conditions not shown (Figure S14)

Protein | stoichiometry N [1] | stoichiometry N [2]
PepA from P. aeruginosa strain PA14 (PaPepA), uncleaved His6-tagged protein used for crystallography (enzyme, Pseudomonas aeruginosa strain PA14, Leucine aminopeptidase PepA, Pseudomonas aeruginosa strain PA14, PA14_14470, UniProt Q02RY8; also called leucine aminopeptidase from Pseudomonas aeruginosa; uncleaved PaPepA; source: E. coli BL21(DE3), purified (HisTrap FF nickel column, dialysed; not TEV-cleaved); not shown: His6 (followed by a linker and a TEV protease cleavage site), N-terminal, kept) MEFLVKSVRPETLKTATLVLAVGEGRKLGASAKAVDDATGGAISAVLKRGDLAGKVGQTLLLQSLPNLKAERVLLVGAGKERELGDRQYRKLASAVLSTLKGLAGADAALALGDLAVKGRGAHAKARLLVETLADGLYVFDRYKSQKAEPLKLKKLTLLADKADSAAVEQGSKEAQAIANGMALTRDLGNLPPNVCHPTFLGEQAKGLAKEFKSLKVEVLDEKKLRELGMGSFLAVAQGSDQPPRLIILQYNGAKKDQAPHVLVGKGITFDTGGISLKPGLGMDEMKFDMCGAASVFGTFRAVLELQLPINLVGLLACAENMPSGGATRPGDIVTTMSGQTVEILNTDAEGRLVLCDALTYAERFKPQSVIDIATLTGACIVALGSNTSGLMGNNEALVRQLLKAGEFADDRAWQLPLFDEYQEQLDSPFADIANIGGPKAGTITAGCFLSRFAKKYHWAHLDIAGTAWISGGKDKGATGRPVPLLTQYLLERAK | 6 | –
PepA from P. aeruginosa strain PA14 (PaPepA), protein used for dynamic light scattering (enzyme, Pseudomonas aeruginosa strain PA14, Leucine aminopeptidase PepA, Pseudomonas aeruginosa strain PA14, PA14_14470, UniProt Q02RY8; probably the cleaved one; also called leucine aminopeptidase from Pseudomonas aeruginosa; source: E. coli BL21(DE3), purified (HisTrap FF nickel column)) MEFLVKSVRPETLKTATLVLAVGEGRKLGASAKAVDDATGGAISAVLKRGDLAGKVGQTLLLQSLPNLKAERVLLVGAGKERELGDRQYRKLASAVLSTLKGLAGADAALALGDLAVKGRGAHAKARLLVETLADGLYVFDRYKSQKAEPLKLKKLTLLADKADSAAVEQGSKEAQAIANGMALTRDLGNLPPNVCHPTFLGEQAKGLAKEFKSLKVEVLDEKKLRELGMGSFLAVAQGSDQPPRLIILQYNGAKKDQAPHVLVGKGITFDTGGISLKPGLGMDEMKFDMCGAASVFGTFRAVLELQLPINLVGLLACAENMPSGGATRPGDIVTTMSGQTVEILNTDAEGRLVLCDALTYAERFKPQSVIDIATLTGACIVALGSNTSGLMGNNEALVRQLLKAGEFADDRAWQLPLFDEYQEQLDSPFADIANIGGPKAGTITAGCFLSRFAKKYHWAHLDIAGTAWISGGKDKGATGRPVPLLTQYLLERAK | – | 6
